Here are results for one substance from patent US20020004226A1.

This test concerns the target soluble LDL receptor from the supernatant of IFN-gamma-treated human WISH cells (antiviral factor) (human) (UniProt P01130). The test is described as follows: immunoaffinity chromatography on agarose-coupled C7; antiviral activity recovered in the pH 11 eluate (el.2 and el.3) relative to the load.
UniProt P01130, sequence (P01130 25-313 limits assumed): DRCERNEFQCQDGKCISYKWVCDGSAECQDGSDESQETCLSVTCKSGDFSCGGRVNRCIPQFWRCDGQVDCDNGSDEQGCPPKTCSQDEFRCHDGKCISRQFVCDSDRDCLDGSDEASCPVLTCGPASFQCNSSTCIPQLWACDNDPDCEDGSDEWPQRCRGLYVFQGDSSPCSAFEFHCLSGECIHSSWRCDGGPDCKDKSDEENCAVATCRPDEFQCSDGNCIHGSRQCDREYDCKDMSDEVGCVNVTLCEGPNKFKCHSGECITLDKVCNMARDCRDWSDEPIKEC

The substance “monoclonal antibody C7 (hybridoma C7, ATCC CRL 1691)” came in with a recovery of 32%.
